Stoichiometry N data for two substances are collected here from paper PMC5427286.

For assay [1], the target named is Hsp21 after limited proteolysis with trypsin (NTR degraded) (A. thaliana) (UniProt P31170). Description: native gel or EMSA; non-denaturing PAGE of purified protein; also of samples withdrawn during 1-30 min of limited trypsin proteolysis.
The target of assay [2] is Hsp21^V181A, non-dodecameric mutational variant of Hsp21 (A. thaliana) (UniProt P31170). Put plainly: SEC-SAXS; online SEC-SAXS, Superdex 200 Increase 10/300, 50 mM HEPES pH 7.5, 100 mM NaCl, 0.1% Tween 20, 0.15 ml/min; retention times 80-84 min; EOM with a pool of dimers and hexamers. For orientation: In gel filtration, larger molecules generally elute earlier.

Where “and” joins values, the source holds several entries; their conditions need not be identical. Equal values may be shown once.

Sequence of Hsp21 after limited proteolysis with trypsin (NTR degraded) (P31170 44-227): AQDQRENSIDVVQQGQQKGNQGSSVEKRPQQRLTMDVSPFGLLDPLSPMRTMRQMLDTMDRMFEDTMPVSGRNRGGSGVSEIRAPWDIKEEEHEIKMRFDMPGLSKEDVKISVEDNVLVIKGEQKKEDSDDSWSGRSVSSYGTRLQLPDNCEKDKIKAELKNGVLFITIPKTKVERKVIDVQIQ

One may read the stoichiometry N as the number of molecules, sites or subunits per partner or assembly. The substance “Hsp21 after limited proteolysis with trypsin (NTR degraded) (from UniProt P31170 44-227) (domain or fragment)” yielded a stoichiometry N in assay [1] of 12. In the case of “Hsp21^V181A, non-dodecameric mutational variant of Hsp21 (from UniProt P31170 44-227) (natural protein)”, the stoichiometry N in assay [2] is 2 and 6.
